Experimental findings from US20230272011A1 (AVACTA LIFE SCIENCES, published 2023) are described below.

The target in assay [1] is T1, human serum albumin (human, UniProt P02768 25-609).
T1 construct: mature; Bought protein; biotinylated in the Octet and HTRF assays; also called HSA; HuSA
Description: SPR (Biacore), immobilised HSA, Affimer analyte.

For assay [2], the target named is T2, human PD-L1-Fc (R&D Systems) chimeric protein (human, UniProt Q9NZQ7 19-239).
T2 construct: Bought reagent; also called rhPD-L1-Fc; huPD-L1; Fc part of the bought chimera not given, not described
Description: SPR (Biacore T200), PD-L1-Fc amine-coupled to CM5, Affimer analyte. The method, then: (§1) ILF dimer production from E. coli was performed as described in Example 3. Briefly, protein was purified using three stages: affinity capture, IEX, and preparative SEC. […] To analyze PD-L1-Fc binding kinetics, a Biacore T200 kinetic analysis was performed using running buffer HBS-EP+ and series S sensor CM5 (GE Healthcare) chip Fc2 immobilized with PD-L1-Fc (R&D Systems) in 10 mM sodium acetate pH 4.0 using amine coupling reagents (GE Healthcare). The concentration titration of ILF AFFIMER® polypeptides was run as analyte at a flow rate of 30 μl/min. […] with 3 mM NaOH (GE healthcare) for 20 seconds at 20 μl/min flow rate. The Fc2-1 data blank was subtracted and fit to a 1:1 Langmuir binding model (Biacore evaluation software; GE) to calculate an apparent KD value.

The target of assay [3] is T2, human PD-L1-Fc (R&D Systems) chimeric …. The assay is described as follows: SPR (Biacore T200), PD-L1-Fc amine-coupled to CM5, Affimer analyte; apparent KD. Here is the method: as §1
For assay [4], the target named is T1, human serum albumin. The assay is described as follows: binding ELISA on coated HSA, pH 7.4. Here is the method: After saturation with 5% PBS Casein pH 7.5, plates were washed and a dilution of AFFIMER® polypeptides or controls were incubated for 90 minutes. Plates were then washed, and a biotinylated polyclonal antibody anti-cystatin A (R&D Systems) was added for 1 hour. Plates were washed and AFFIMER® polypeptides were detected using streptavidin-HRP. After a last washing step, TMB was added for the development of the experiment and the plates were read at 450 nm.

In assay [5] the target is T1, human serum albumin. Description: SPR (Biacore), immobilised HSA, Affimer analyte. Here is the method: Affinities for mouse, human, and cynomolgus serum were also measured at pH 7.4 for four (4) AFFIMER® binders using surface plasmon resonance (SPR) (FIG. 5, Table 5). […] A concentration titration of AFFIMER® monomers was run as analyte at a flow rate of 30 μl/min or 60 μl/min. Fc2-1, Fc3-1 and Fc4-1 kinetic data was blank subtracted and fit to a 1:1 Langmuir binding model (BIAcore Evalution software; GE) to calculate KD values. […]
The source holds these as a separate data set.

For assay [6], the target named is T2, human PD-L1-Fc (R&D Systems) chimeric …. The assay is described as follows: binding ELISA on coated human PD-L1-Fc (table on the sheet is headed 'IC50 (nM)'; the text calls these values EC50). Here is the method:
Briefly, human PD-L1-Fc (R&D Systems) chimeric protein was coated on 96 well plates at […] in carbonate buffer. After saturation with 5% casein/PBS buffer, the plates were washed and a dilution of AFFIMER® polypeptides or controls were incubated for 90 minutes. Plates were then washed and a biotinylated polyclonal antibody anti-cystatin A (R&D Systems) was added for 1 hour. Plates were washed and AFFIMER® polypeptides were detected using streptavidin-HRP. After a last washing step, TMB was added for the development of the experiment and plates were read at 450 nm.

In assay [7] the target is T3, cynomolgus serum albumin (cynomolgus).
T3 construct: also called CSA; cyno serum albumin
Description: BLI (Octet), biotinylated albumin on SA sensor, pH 6.0. Here is the method: (§2) Biotinylated antigen was captured onto SA sensors at 1 μg/ml for 600 seconds in a buffer comprising PBS-T (0.01% Tween 20)+1% casein at either pH 6.0 or 7.4. Association was carried out for 300 seconds and dissociation for 600 seconds, and regeneration was performed using 10 mM glycine pH 1.5 (GE Healthcare) for 3×5 seconds. All steps were carried out at 1000 rpm and 25° C. Purified AFFIMER® polypeptide in two-fold serial dilutions was analyzed at a starting concentration of approximately 10× K_{D value}. Kinetics analyses were carried out using the Octet data analysis software, subtracting the reference sensor (loaded with antigen), aligning the Y-axis to baseline, and using inter-step correction to align association to dissociation. Savitzky-Golay filtering was applied and the data processed. Analysis of the data was carried out with a 1:1 model, global fit, Rₘₐₓ unlinked by sensor.

Assay [8] addresses T1, human serum albumin. Described as above. Here is the method:
as §2

The target in the next assay is T4, mouse serum albumin (mouse, UniProt P07724 25-608).
T4 construct: also called MSA
Described as above. The method, then:
as §2

The target in assay [9] is T3, cynomolgus serum albumin. The assay is described as follows: BLI (Octet), biotinylated albumin on SA sensor, pH 7.4. The method, then: as §2
In assay [10] the target is T1, human serum albumin. Described as above. Here is the method: as §2
Assay [11] has as its target T1, human serum albumin. Description: SPR (Biacore) response to HSA, pH 7.4. An excerpt: (§3) Final clones were sequence-verified, produced from E. coli, and affinity purified as described in Example 3.
Assay [12] has as its target T1, human serum albumin. Description: SPR (Biacore) binding response to HSA at pH 7.4, Affimer at 50 nM.
From the text: as §3

Where two headings read alike, the source gives them in different places.

T2 sequence (Q9NZQ7 19-239, change not shown): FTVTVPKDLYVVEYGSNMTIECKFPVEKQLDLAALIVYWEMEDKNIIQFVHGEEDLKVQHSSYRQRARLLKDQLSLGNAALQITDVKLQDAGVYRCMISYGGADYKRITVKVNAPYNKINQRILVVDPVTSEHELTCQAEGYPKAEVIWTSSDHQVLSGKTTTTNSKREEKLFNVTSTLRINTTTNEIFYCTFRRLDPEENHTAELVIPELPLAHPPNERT
T3 sequence (A2V9Z4 25-608): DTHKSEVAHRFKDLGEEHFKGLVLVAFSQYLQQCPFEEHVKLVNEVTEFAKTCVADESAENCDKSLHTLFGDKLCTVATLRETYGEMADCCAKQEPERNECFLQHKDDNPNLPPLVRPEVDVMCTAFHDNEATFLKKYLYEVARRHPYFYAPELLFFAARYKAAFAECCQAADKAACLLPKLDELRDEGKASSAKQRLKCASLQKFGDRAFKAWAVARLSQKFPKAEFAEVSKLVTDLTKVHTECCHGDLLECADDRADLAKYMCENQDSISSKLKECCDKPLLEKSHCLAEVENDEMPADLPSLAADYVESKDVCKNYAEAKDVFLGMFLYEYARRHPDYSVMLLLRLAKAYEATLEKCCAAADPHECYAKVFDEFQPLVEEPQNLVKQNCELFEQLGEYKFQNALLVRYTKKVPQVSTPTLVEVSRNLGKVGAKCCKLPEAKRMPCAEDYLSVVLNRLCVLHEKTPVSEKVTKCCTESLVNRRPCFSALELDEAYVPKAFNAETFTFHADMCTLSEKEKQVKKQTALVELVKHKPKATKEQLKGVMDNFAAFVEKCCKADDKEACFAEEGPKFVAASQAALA
T4 sequence (P07724 25-608 limits assumed): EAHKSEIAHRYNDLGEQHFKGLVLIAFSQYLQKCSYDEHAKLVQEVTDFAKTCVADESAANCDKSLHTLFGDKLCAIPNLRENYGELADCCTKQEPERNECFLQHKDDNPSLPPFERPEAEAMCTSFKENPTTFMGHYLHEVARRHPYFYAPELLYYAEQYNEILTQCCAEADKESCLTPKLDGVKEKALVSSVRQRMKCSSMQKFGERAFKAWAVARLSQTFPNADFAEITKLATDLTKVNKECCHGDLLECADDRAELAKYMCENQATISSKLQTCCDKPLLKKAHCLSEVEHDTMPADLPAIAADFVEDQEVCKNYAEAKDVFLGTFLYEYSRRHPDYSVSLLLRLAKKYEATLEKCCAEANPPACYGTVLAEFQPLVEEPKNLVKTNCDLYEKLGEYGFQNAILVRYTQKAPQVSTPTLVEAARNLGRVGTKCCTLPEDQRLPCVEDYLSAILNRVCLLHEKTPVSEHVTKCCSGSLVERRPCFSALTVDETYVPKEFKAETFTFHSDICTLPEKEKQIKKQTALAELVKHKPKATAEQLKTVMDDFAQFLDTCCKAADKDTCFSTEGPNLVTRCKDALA

B1: AVA04-261 XT9 (designed binder)
chain: MIPRGLSEAKPATPEIQEIVDKVKPQLEEKTNETYGKLEAVQYKTQVLAHAYGPRDWDSTNYYIKVRAGDNKYMHLKVFNGPPADHVLEEAADRVLTGYQVDKNKDDELTGFGGGGSGGGGSGGGGSGGGGSGGGGSGGGGSMIPRGLSEAKPATPEIQEIVDKVKPQLEEKTNETYGKLEAVQYKTQVLANFFQRRWPGSTNYYIKVRAGDNKYMHLKVFNGPWKFRNTDRGADRVLTGYQVDKNKDDELTGFHHHHHH
B1: in the assay with human serum albumin [1], the Kd came out at 13.3 nM, the koff was found to be 0.00357 s⁻¹ and the kon was 269000 M⁻¹ s⁻¹. Also, in assay [2], the dissociation rate constant (koff) came out at 0.00707 s⁻¹ and the kon is 395000 M⁻¹ s⁻¹. In addition, the Kd in assay [3] turned out to be 17.9 nM.

B2: AVA04-269 XT12 (designed binder)
chain: MIPRGLSEAKPATPEIQEIVDKVKPQLEEKTNETYGKLEAVQYKTQVLAKEYGPEEWWSTNYYIKVRAGDNKYMHLKVFNGPGDYEQVLIHADRVLTGYQVDKNKDDELTGFAEAAAKEAAAKEAAAKEAAAKEAAAKEAAAKMIPRGLSEAKPATPEIQEIVDKVKPQLEEKTNETYGKLEAVQYKTQVLANFFQRRWPGSTNYYIKVRAGDNKYMHLKVFNGPWKFRNTDRGADRVLTGYQVDKNKDDELTGFHHHHHH
In the assay with human serum albumin [1], B2 had a Kd of 12.9 nM, a koff of 0.00228 s⁻¹ and a kon of 177000 M⁻¹ s⁻¹. In [2], this molecule displayed a koff of 0.00431 s⁻¹ and a kon of 1.14e+06 M⁻¹ s⁻¹. The Kd in [3] stood at 3.8 nM.

B3: AVA04-261 XT10 (designed binder)
chain: MIPRGLSEAKPATPEIQEIVDKVKPQLEEKTNETYGKLEAVQYKTQVLAHAYGPRDWDSTNYYIKVRAGDNKYMHLKVFNGPPADHVLEEAADRVLTGYQVDKNKDDELTGFAEAAAKEAAAKEAAAKEAAAKEAAAKEAAAKMIPRGLSEAKPATPEIQEIVDKVKPQLEEKTNETYGKLEAVQYKTQVLANFFQRRWPGSTNYYIKVRAGDNKYMHLKVFNGPWKFRNTDRGADRVLTGYQVDKNKDDELTGFHHHHHH
In the assay with human serum albumin [1], B3 registered a Kd of 9.7 nM, a koff of 0.00291 s⁻¹ and a kon of 299000 M⁻¹ s⁻¹. In assay [2], this molecule returned a koff of 0.00826 s⁻¹ and an on-rate constant (kon) of 875000 M⁻¹ s⁻¹. In assay [3], the Kd was 9.44 nM.

B4: AVA04-251 XT16 (designed binder)
chain: MIPRGLSEAKPATPEIQEIVDKVKPQLEEKTNETYGKLEAVQYKTQVLANFFQRRWPGSTNYYIKVRAGDNKYMHLKVFNGPWKFRNTDRGADRVLTGYQVDKNKDDELTGFAEAAAKEAAAKEAAAKEAAAKEAAAKEAAAKMIPRGLSEAKPATPEIQEIVDKVKPQLEEKTNETYGKLEAVQYKTQVLAREGRQDWVLSTNYYIKVRAGDNKYMHLKVFNGPWVPFPHQQLADRVLTGYQVDKNKDDELTGFAEAAAKEAAAKEAAAKEAAAKEAAAKEAAAKMIPRGLSEAKPATPEIQEIVDKVKPQLEEKTNETYGKLEAVQYKTQVLAREGRQDWVLSTNYYIKVRAGDNKYMHLKVFNGPWVPFPHQQLADRVLTGYQVDKNKDDELTGFHHHHHH
Molecule B4 returned an EC50 in the assay with human serum albumin [4] of 0.059 nM. In addition, in the assay with human serum albumin [5], the Kd amounted to 3.95 nM, the koff worked out at 0.00324 s⁻¹ and the kon is 821000 M⁻¹ s⁻¹. Also, in [6], the EC50 was determined as 0.11 nM.

B5: HSA-22 (designed binder)
chain: MIPRGLSEAKPATPEIQEIVDKVKPQLEEKTNETYGKLEAVQYKTQVLANWYQQRWPGSTNYYIKVRAGDNKYMHLKVFNGPWHNYGESSGADRVLTGYQVDKNKDDELTGFHHHHHH
As for B5, the Kd worked out at 146 nM with cynomolgus serum albumin [7]; 44.7 nM with human serum albumin [8]; 334 nM with mouse serum albumin; 348 nM in the assay with cynomolgus serum albumin [9]; 152 nM in the assay with human serum albumin [10].

B6: HSA-41 R55A (designed binder)
chain: MIPRGLSEAKPATPEIQEIVDKVKPQLEEKTNETYGKLEAVQYKTQVLANFFQRAWPGSTNYYIKVRAGDNKYMHLKVFNGPWKFRNTDRGADRVLTGYQVDKNKDDELTGFHHHHHH
As for B6, the binding result in the assay with human serum albumin [11] is listed as “no binding (tested: 50 nM)”. In addition, the “binding response” value with human serum albumin [12] came out at 2.9.

B7: HSA-41 W56A (designed binder)
chain: MIPRGLSEAKPATPEIQEIVDKVKPQLEEKTNETYGKLEAVQYKTQVLANFFQRRAPGSTNYYIKVRAGDNKYMHLKVFNGPWKFRNTDRGADRVLTGYQVDKNKDDELTGFHHHHHH
Turning to B7, the binding result in the assay with human serum albumin [11] is “no binding (tested: 50 nM)”. Further, in the assay with human serum albumin [12], the “binding response” value is 2.6.

B8: HSA-41 F51A (designed binder)
chain: MIPRGLSEAKPATPEIQEIVDKVKPQLEEKTNETYGKLEAVQYKTQVLANAFQRRWPGSTNYYIKVRAGDNKYMHLKVFNGPWKFRNTDRGADRVLTGYQVDKNKDDELTGFHHHHHH
Regarding B8, the binding result with human serum albumin [11] was “no binding (tested: 50 nM)”. The “binding response” value with human serum albumin [12] came out at 2.8.

B9: HSA-41 W83A (designed binder)
chain: MIPRGLSEAKPATPEIQEIVDKVKPQLEEKTNETYGKLEAVQYKTQVLANFFQRRWPGSTNYYIKVRAGDNKYMHLKVFNGPAKFRNTDRGADRVLTGYQVDKNKDDELTGFHHHHHH
For B9, the binding result with human serum albumin [11] is given as “no binding (tested: 50 nM)”. In addition, the “binding response” value with human serum albumin [12] was found to be 2.9.

B10: HSA-41 F52A (designed binder)
chain: MIPRGLSEAKPATPEIQEIVDKVKPQLEEKTNETYGKLEAVQYKTQVLANFAQRRWPGSTNYYIKVRAGDNKYMHLKVFNGPWKFRNTDRGADRVLTGYQVDKNKDDELTGFHHHHHH
As to B10, in the assay with human serum albumin [11], the binding result is listed as “no binding (tested: 50 nM)”. The “binding response” value in the assay with human serum albumin [12] came out at 2.2.

B11: HSA-37 (designed binder)
chain: MIPRGLSEAKPATPEIQEIVDKVKPQLEEKTNETYGKLEAVQYKTQVLAGFWASKWPGSTNYYIKVRAGDNKYMHLKVFNGPFTAVSKKDAADRVLTGYQVDKNKDDELTGFHHHHHH
With B11, the Kd turned out to be 231 nM with cynomolgus serum albumin [7]; 136 nM in the assay with human serum albumin [8]; 834 nM with mouse serum albumin; 221 nM in the assay with cynomolgus serum albumin [9]; 113 nM with human serum albumin [10].
